Experimental data published in US20120003214A1.

Experiments:
[1] = molecular target: apical membrane antigen-1 (AMA1) of Plasmodium falciparum, strain 3D7 (Plasmodium falciparum); experiment: ELISA, biosensor and protein bioarray
[2] = molecular target: apical membrane antigen-1 (AMA1) of Plasmodium falciparum, strain 3D7 (Plasmodium falciparum); experiment: protein bioarray
[3] = molecular target: apical membrane antigen-1 (AMA1) of Plasmodium falciparum, strain 3D7 (Plasmodium falciparum); experiment: biosensor, purified proteins
[4] = molecular target: apical membrane antigen-1 (AMA1) of Plasmodium falciparum, strain 3D7 (Plasmodium falciparum); experiment: not stated (screen of a random mutagenesis library against AMA1)

fold better affinity than 14M-15 [1]	Kd [2]	fold better affinity than 12Y-2 [3]	Binder	fold enhanced affinity over the wild type 12Y-2 [4]
2 fold	2.6 nM	20 fold	VNAR 22A-2 (12Y-2 Thr39Ser; Pro90Leu) (VNAR) VNAR: AWVDQTPRTATKETGESLTINCVLRDASFELKDTGWYRSKLGSTNEQSISIGGRYVETVNKGSKSFSLRISDLRVEDSGTYKCQAFYSLLLGDYNYSLLFRGEKGAGTALTVK	
	6.5 nM		VNAR 14M-15 (12Y-2 Pro90Leu variant) (VNAR) VNAR: AWVDQTPRTATKETGESLTINCVLRDASFELKDTGWYRTKLGSTNEQSISIGGRYVETVNKGSKSFSLRISDLRVEDSGTYKCQAFYSLLLGDYNYSLLFRGEKGAGTALTVK	10 fold
			VNAR 14M-8 (12Y-2 Phe100Leu) (VNAR) VNAR: AWVDQTPRTATKETGESLTINCVLRDASFELKDTGWYRTKLGSTNEQSISIGGRYVETVNKGSKSFSLRISDLRVEDSGTYKCQAFYSLPLGDYNYSLLLRGEKGAGTALTVK	10 fold
